# Measurements reported in patent US20140087995A1 (published 2014).
# Numbered stars: 1 amine (or outer) side, 2 acyl side, 3 side chain; on linkers, the order of the positions; unused ones are H or OH. Bridge positions count the residues as written; N and C are the ends. Side chains are listed from the residue outwards. Ends that are not written are not given here. * marks the point of attachment. C20 diacid = O=C(O)CCCCCCCCCCCCCCCCCCC(=O)*; γGlu = O=C(O)[C@H](CCC(=O)[*:2])N[*:1]; AEEA = NCCOCCOCC(=O)O
# B1: N^ε1-[2-[2-[2-[[(4S)-4-carboxy-4-(19-carboxynonadecanoylamino)butanoyl]amino]ethoxy]ethoxy]acetyl]-[Arg17,Pro21,Pro27]-h-amylin (peptide)
# peptide: K([AEEA-γGlu-C20 diacid])CNTATCATQRLANFLRHSSPNFGAIPSSTNVGSNTY-NH2
# modifications: disulfide 2-7; N-terminus assumed
# SMILES: CC[C@H](C)[C@H](NC(=O)[C@H](C)NC(=O)CNC(=O)[C@H](Cc1ccccc1)NC(=O)[C@H](CC(N)=O)NC(=O)[C@@H]1CCCN1C(=O)[C@H](CO)NC(=O)[C@H](CO)NC(=O)[C@H](Cc1c[nH]cn1)NC(=O)[C@H](CCCNC(=N)N)NC(=O)[C@H](CC(C)C)NC(=O)[C@H](Cc1ccccc1)NC(=O)[C@H](CC(N)=O)NC(=O)[C@H](C)NC(=O)[C@H](CC(C)C)NC(=O)[C@H](CCCNC(=N)N)NC(=O)[C@H](CCC(N)=O)NC(=O)[C@@H](NC(=O)[C@H](C)NC(=O)[C@@H]1CSSC[C@H](NC(=O)[C@@H](N)CCCCNC(=O)COCCOCCNC(=O)CC[C@H](NC(=O)CCCCCCCCCCCCCCCCCCC(=O)O)C(=O)O)C(=O)N[C@@H](CC(N)=O)C(=O)N[C@@H]([C@@H](C)O)C(=O)N[C@@H](C)C(=O)N[C@@H]([C@@H](C)O)C(=O)N1)[C@@H](C)O)C(=O)N1CCC[C@H]1C(=O)N[C@@H](CO)C(=O)N[C@@H](CO)C(=O)N[C@H](C(=O)N[C@@H](CC(N)=O)C(=O)N[C@H](C(=O)NCC(=O)N[C@@H](CO)C(=O)N[C@@H](CC(N)=O)C(=O)N[C@H](C(=O)N[C@@H](Cc1ccc(O)cc1)C(N)=O)[C@@H](C)O)C(C)C)[C@@H](C)O
# notes: also called compound 41
# B2: N^ε-[(4S)-4-carboxy-4-(19-carboxynonadecanoylamino)butanoyl]Lys[Arg1,Arg17,Pro21,Pro27,His35]-h-amylin (peptide)
# peptide: K([γGlu-C20 diacid])RCNTATCATQRLANFLRHSSPNFGAIPSSTNVGSHTY-NH2
# modifications: disulfide 3-8; N-terminus assumed
# SMILES: CC[C@H](C)[C@H](NC(=O)[C@H](C)NC(=O)CNC(=O)[C@H](Cc1ccccc1)NC(=O)[C@H](CC(N)=O)NC(=O)[C@@H]1CCCN1C(=O)[C@H](CO)NC(=O)[C@H](CO)NC(=O)[C@H](Cc1c[nH]cn1)NC(=O)[C@H](CCCNC(=N)N)NC(=O)[C@H](CC(C)C)NC(=O)[C@H](Cc1ccccc1)NC(=O)[C@H](CC(N)=O)NC(=O)[C@H](C)NC(=O)[C@H](CC(C)C)NC(=O)[C@H](CCCNC(=N)N)NC(=O)[C@H](CCC(N)=O)NC(=O)[C@@H](NC(=O)[C@H](C)NC(=O)[C@@H]1CSSC[C@H](NC(=O)[C@H](CCCNC(=N)N)NC(=O)[C@@H](N)CCCCNC(=O)CC[C@H](NC(=O)CCCCCCCCCCCCCCCCCCC(=O)O)C(=O)O)C(=O)N[C@@H](CC(N)=O)C(=O)N[C@@H]([C@@H](C)O)C(=O)N[C@@H](C)C(=O)N[C@@H]([C@@H](C)O)C(=O)N1)[C@@H](C)O)C(=O)N1CCC[C@H]1C(=O)N[C@@H](CO)C(=O)N[C@@H](CO)C(=O)N[C@H](C(=O)N[C@@H](CC(N)=O)C(=O)N[C@H](C(=O)NCC(=O)N[C@@H](CO)C(=O)N[C@@H](Cc1c[nH]cn1)C(=O)N[C@H](C(=O)N[C@@H](Cc1ccc(O)cc1)C(N)=O)[C@@H](C)O)C(C)C)[C@@H](C)O
# notes: 38 residues; also called compound 44
# B3: N^ε-[2-[2-[2-[[(4S)-4-carboxy-4-(19-carboxynonadecanoylamino)butanoyl]amino]ethoxy]ethoxy]acetyl]Lys[Arg1,Arg17,Pro21,Pro27,His35]-h-amylin (peptide)
# peptide: K([AEEA-γGlu-C20 diacid])RCNTATCATQRLANFLRHSSPNFGAIPSSTNVGSHTY-NH2
# modifications: disulfide 3-8; N-terminus assumed
# SMILES: CC[C@H](C)[C@H](NC(=O)[C@H](C)NC(=O)CNC(=O)[C@H](Cc1ccccc1)NC(=O)[C@H](CC(N)=O)NC(=O)[C@@H]1CCCN1C(=O)[C@H](CO)NC(=O)[C@H](CO)NC(=O)[C@H](Cc1c[nH]cn1)NC(=O)[C@H](CCCNC(=N)N)NC(=O)[C@H](CC(C)C)NC(=O)[C@H](Cc1ccccc1)NC(=O)[C@H](CC(N)=O)NC(=O)[C@H](C)NC(=O)[C@H](CC(C)C)NC(=O)[C@H](CCCNC(=N)N)NC(=O)[C@H](CCC(N)=O)NC(=O)[C@@H](NC(=O)[C@H](C)NC(=O)[C@@H]1CSSC[C@H](NC(=O)[C@H](CCCNC(=N)N)NC(=O)[C@@H](N)CCCCNC(=O)COCCOCCNC(=O)CC[C@H](NC(=O)CCCCCCCCCCCCCCCCCCC(=O)O)C(=O)O)C(=O)N[C@@H](CC(N)=O)C(=O)N[C@@H]([C@@H](C)O)C(=O)N[C@@H](C)C(=O)N[C@@H]([C@@H](C)O)C(=O)N1)[C@@H](C)O)C(=O)N1CCC[C@H]1C(=O)N[C@@H](CO)C(=O)N[C@@H](CO)C(=O)N[C@H](C(=O)N[C@@H](CC(N)=O)C(=O)N[C@H](C(=O)NCC(=O)N[C@@H](CO)C(=O)N[C@@H](Cc1c[nH]cn1)C(=O)N[C@H](C(=O)N[C@@H](Cc1ccc(O)cc1)C(N)=O)[C@@H](C)O)C(C)C)[C@@H](C)O
# notes: 38 residues; also called compound 45
# B4: N^ε1-[(4S)-4-carboxy-4-(19-carboxynonadecanoylamino)butanoyl]-[Arg17,Pro21,Pro27]-h-amylin (peptide)
# peptide: K([γGlu-C20 diacid])CNTATCATQRLANFLRHSSPNFGAIPSSTNVGSNTY-NH2
# modifications: disulfide 2-7; N-terminus assumed
# SMILES: CC[C@H](C)[C@H](NC(=O)[C@H](C)NC(=O)CNC(=O)[C@H](Cc1ccccc1)NC(=O)[C@H](CC(N)=O)NC(=O)[C@@H]1CCCN1C(=O)[C@H](CO)NC(=O)[C@H](CO)NC(=O)[C@H](Cc1c[nH]cn1)NC(=O)[C@H](CCCNC(=N)N)NC(=O)[C@H](CC(C)C)NC(=O)[C@H](Cc1ccccc1)NC(=O)[C@H](CC(N)=O)NC(=O)[C@H](C)NC(=O)[C@H](CC(C)C)NC(=O)[C@H](CCCNC(=N)N)NC(=O)[C@H](CCC(N)=O)NC(=O)[C@@H](NC(=O)[C@H](C)NC(=O)[C@@H]1CSSC[C@H](NC(=O)[C@@H](N)CCCCNC(=O)CC[C@H](NC(=O)CCCCCCCCCCCCCCCCCCC(=O)O)C(=O)O)C(=O)N[C@@H](CC(N)=O)C(=O)N[C@@H]([C@@H](C)O)C(=O)N[C@@H](C)C(=O)N[C@@H]([C@@H](C)O)C(=O)N1)[C@@H](C)O)C(=O)N1CCC[C@H]1C(=O)N[C@@H](CO)C(=O)N[C@@H](CO)C(=O)N[C@H](C(=O)N[C@@H](CC(N)=O)C(=O)N[C@H](C(=O)NCC(=O)N[C@@H](CO)C(=O)N[C@@H](CC(N)=O)C(=O)N[C@H](C(=O)N[C@@H](Cc1ccc(O)cc1)C(N)=O)[C@@H](C)O)C(C)C)[C@@H](C)O
# notes: also called compound 48
# B5: N^ε1-[(4S)-4-carboxy-4-[[(4S)-4-carboxy-4-(19-carboxynonadecanoylamino)butanoyl]amino]butanoyl]-[Glu14,Arg17,Pro21,Pro27,Arg35]-h-amylin (peptide)
# peptide: K([γGlu-γGlu-C20 diacid])CNTATCATQRLAEFLRHSSPNFGAIPSSTNVGSRTY-NH2
# modifications: disulfide 2-7; N-terminus assumed
# SMILES: CC[C@H](C)[C@H](NC(=O)[C@H](C)NC(=O)CNC(=O)[C@H](Cc1ccccc1)NC(=O)[C@H](CC(N)=O)NC(=O)[C@@H]1CCCN1C(=O)[C@H](CO)NC(=O)[C@H](CO)NC(=O)[C@H](Cc1c[nH]cn1)NC(=O)[C@H](CCCNC(=N)N)NC(=O)[C@H](CC(C)C)NC(=O)[C@H](Cc1ccccc1)NC(=O)[C@H](CCC(=O)O)NC(=O)[C@H](C)NC(=O)[C@H](CC(C)C)NC(=O)[C@H](CCCNC(=N)N)NC(=O)[C@H](CCC(N)=O)NC(=O)[C@@H](NC(=O)[C@H](C)NC(=O)[C@@H]1CSSC[C@H](NC(=O)[C@@H](N)CCCCNC(=O)CC[C@H](NC(=O)CC[C@H](NC(=O)CCCCCCCCCCCCCCCCCCC(=O)O)C(=O)O)C(=O)O)C(=O)N[C@@H](CC(N)=O)C(=O)N[C@@H]([C@@H](C)O)C(=O)N[C@@H](C)C(=O)N[C@@H]([C@@H](C)O)C(=O)N1)[C@@H](C)O)C(=O)N1CCC[C@H]1C(=O)N[C@@H](CO)C(=O)N[C@@H](CO)C(=O)N[C@H](C(=O)N[C@@H](CC(N)=O)C(=O)N[C@H](C(=O)NCC(=O)N[C@@H](CO)C(=O)N[C@@H](CCCNC(=N)N)C(=O)N[C@H](C(=O)N[C@@H](Cc1ccc(O)cc1)C(N)=O)[C@@H](C)O)C(C)C)[C@@H](C)O
# notes: also called compound 89
# Molecular target: T1, human amylin 3(a) receptor (human calcitonin receptor co-expressed with RAMP-3) (human, UniProt P30988 25-474; O60896 24-148, limits assumed)
# T1 sequence (looked up) 1: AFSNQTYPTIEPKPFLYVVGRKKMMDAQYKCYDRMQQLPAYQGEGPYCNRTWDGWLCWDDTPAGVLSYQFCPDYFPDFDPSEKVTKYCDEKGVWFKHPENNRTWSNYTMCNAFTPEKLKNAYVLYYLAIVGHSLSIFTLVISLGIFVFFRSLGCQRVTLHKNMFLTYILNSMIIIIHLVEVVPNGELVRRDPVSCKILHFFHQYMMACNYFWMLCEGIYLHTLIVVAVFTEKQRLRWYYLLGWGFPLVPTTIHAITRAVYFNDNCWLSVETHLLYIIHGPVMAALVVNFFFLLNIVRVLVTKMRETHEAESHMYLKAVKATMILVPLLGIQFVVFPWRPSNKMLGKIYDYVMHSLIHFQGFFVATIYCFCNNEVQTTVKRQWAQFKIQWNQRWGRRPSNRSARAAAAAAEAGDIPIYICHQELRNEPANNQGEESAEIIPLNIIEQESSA
# T1 sequence (looked up) 2: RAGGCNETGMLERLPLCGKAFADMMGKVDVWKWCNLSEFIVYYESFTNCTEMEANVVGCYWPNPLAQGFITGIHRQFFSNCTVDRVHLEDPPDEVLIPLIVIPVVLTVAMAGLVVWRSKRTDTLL
# Experiment: cell-based or functional assay
Binder,Ratio hCT/hAmylin funct. (hCTR EC50 over hAmylin-R EC50),hAmylin-R funct. EC50 (pM)
B1,16.7,260
B2,24,198
B3,17,594
B4,17,116
B5,27.8,404
